Reference: article PMC4686002 (2015)

How the values were obtained:
[1] = molecular target: the molecule itself; test: analytical ultracentrifugation (sedimentation velocity)
[2] = molecular target: T1, FtsZ C-terminal tail peptide C-terminal tail peptide (Escherichia coli, UniProt P0A9A6); test: ITC
T1 chain: KEPDYLDIPAFLRKQAD

Kd [2]: 32 µM
B1: ZapC (protein)
chain: not shown
Kd [1]: ~30 µM
